The results in this text go back to publication PMC4628882.

The target in experiment [1] is mouse melanocortin 1 receptor (mouse) (UniProt Q01727).
Experiment [2] addresses mouse melanocortin 3 receptor (mouse) (UniProt P33033).
Experiment [3] has as its target mouse melanocortin 4 receptor (mouse) (UniProt P56450).
Experiment [4] addresses mouse melanocortin 5 receptor (mouse) (UniProt P41149).
Chain of UniProt P41149 (P41149 whole entry): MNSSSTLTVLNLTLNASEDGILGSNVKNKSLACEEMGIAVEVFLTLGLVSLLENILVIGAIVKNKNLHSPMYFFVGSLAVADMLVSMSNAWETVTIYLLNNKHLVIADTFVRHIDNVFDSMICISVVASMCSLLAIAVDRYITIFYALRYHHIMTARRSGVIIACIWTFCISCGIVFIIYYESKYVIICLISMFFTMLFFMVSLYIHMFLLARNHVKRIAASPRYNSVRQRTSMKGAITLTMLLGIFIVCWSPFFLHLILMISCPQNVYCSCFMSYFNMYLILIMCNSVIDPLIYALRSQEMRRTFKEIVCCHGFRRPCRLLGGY

Chain of UniProt Q01727 (Q01727 whole entry): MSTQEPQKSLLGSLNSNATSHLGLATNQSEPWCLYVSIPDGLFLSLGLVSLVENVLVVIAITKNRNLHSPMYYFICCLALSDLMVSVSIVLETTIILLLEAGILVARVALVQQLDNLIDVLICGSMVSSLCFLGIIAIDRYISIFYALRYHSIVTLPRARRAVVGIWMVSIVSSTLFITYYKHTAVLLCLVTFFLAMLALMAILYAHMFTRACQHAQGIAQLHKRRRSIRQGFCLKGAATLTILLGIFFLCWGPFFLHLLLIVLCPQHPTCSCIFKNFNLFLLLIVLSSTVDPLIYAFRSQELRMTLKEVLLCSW
Chain of UniProt P33033 (P33033 whole entry): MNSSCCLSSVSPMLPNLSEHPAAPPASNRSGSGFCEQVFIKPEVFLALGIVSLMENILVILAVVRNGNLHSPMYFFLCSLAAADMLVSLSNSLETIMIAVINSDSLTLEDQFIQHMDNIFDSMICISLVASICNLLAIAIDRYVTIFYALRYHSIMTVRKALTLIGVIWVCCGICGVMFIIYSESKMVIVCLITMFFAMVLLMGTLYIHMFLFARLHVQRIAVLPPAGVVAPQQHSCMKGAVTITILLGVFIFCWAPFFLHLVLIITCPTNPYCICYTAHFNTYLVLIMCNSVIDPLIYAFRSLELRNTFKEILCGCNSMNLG
Chain of UniProt P56450 (P56450 whole entry): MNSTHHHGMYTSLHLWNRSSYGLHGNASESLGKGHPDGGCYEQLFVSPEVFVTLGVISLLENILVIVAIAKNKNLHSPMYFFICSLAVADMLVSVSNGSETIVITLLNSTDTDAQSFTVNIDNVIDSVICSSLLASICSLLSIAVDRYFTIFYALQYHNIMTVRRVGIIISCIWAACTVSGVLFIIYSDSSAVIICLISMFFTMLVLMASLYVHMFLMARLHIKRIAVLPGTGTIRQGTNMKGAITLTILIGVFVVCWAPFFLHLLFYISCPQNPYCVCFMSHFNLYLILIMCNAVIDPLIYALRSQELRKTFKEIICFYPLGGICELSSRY

As for “ClpB(535-548) (from UniProt P63284 535-548) (peptide)”, the agonist EC50, AlphaScreen cAMP assay on stably transfected HEK293 cells in experiment [1] came to 41000 nM.

Regarding α-MSH (peptide), the agonist EC50, AlphaScreen cAMP assay on stably transfected HEK293 cells in experiment [1] stood at 0.14 nM; in experiment [2], 0.5 nM; in experiment [3], 2.9 nM; in experiment [4], 0.51 nM.
